Assay results: article PMC8211771

Substrate: O=[N+]([O-])c1ccc(O[C@@H]2O[C@H](CO)[C@H](O)[C@H](O)[C@H]2O)cc1
Test: purified protein
Details: 100 mM phosphate-based buffer, 5 μM protein
[1] = pH 8.0, 20 °C (room temperature), Figure 6 legend gives 0.047 mM (±0.005), pH 8.0
[2] = pH 8.4, 20 °C (room temperature), Figure 6 legend gives 0.052 mM (±0.007), pH 8.4
[3] = pH 8.0, 20 °C (room temperature), Figure 6 legend gives 0.07 mM (±0.012), pH 8.0
[4] = pH 8.0, 20 °C (room temperature), Figure 6 legend gives 0.13 mM (±0.010), pH 8.0

B1: BT2857C (Bacteroides thetaiotaomicron VPI-5482) (protein)
chain: ELDKTKFREMYLQNDSRVDSYDGKMEYVWNGRISKDGDSGGVGLHTGTGTKDGPAVFTFDLGVLAKLSRFALWAIQDEKHFYNDMSPRRYEVWGCATEPNPDGSWDQWVKLLDMENVKPSGSPIGILTEDDIEAAKIGDQANVPLDMPRVRYIRIKCLKNWSNNYNICFTELTFWGND
kcat [1]: 0.011 s⁻¹
kcat/Km [1]: 234 M⁻¹ s⁻¹

B2: BT3158 (Bacteroides thetaiotaomicron VPI-5482) (protein)
chain: CEDVETHKPYGDGSGHAPGTVQVTSYEQIPGGVTLKFIAPTDEDLLYIKIKYTLDNGKEMEARASLYTDETTIEGFGNTNPKKLVISAVNKMEKEGEAIITEIVPGKPAYLTAIEEIEVNPTFGGIYIHTTNGGRNYLIFDVSTKDSKGNWNIEHTEYTSVKNIGFTLRGFSAEPHDFKVRVRDLYDNQSEEYLTTLTPLYEEKLDLTKFKTFYLANDIKMDNAGHTLESLFNGDHGLNSWNYAHGYDFNPSEFPVWFTFDMGQTAQLSRFTSWQRSMGGSYYYRAGAIKEWEVWGRSDLPSSDGSWDGWTKLADCESIKPSGWPTGSNSEEDITYASKGEEFEFLADIPPVRYIRFKILSTHDGAGLVVMQQLWFYGTPIQ
kcat [2]: 1.21 s⁻¹
kcat/Km [2]: 23300 M⁻¹ s⁻¹

B3: BT2857N (Bacteroides thetaiotaomicron VPI-5482) (protein)
chain: CAEDMVKPIENDKDAPGTVQDVKTESLPGAVKFTYTLPSDPDLLYVLAKYTNKTGKVMEFRSSFYTNSVTVEGFGDTDTYKVELYTVDRSENRSQPQIVEVVPLTPPILSCYESLSMVSDFGGMTFEMDNKFKSDLAIYVCTPDELGDMVLAETFYSAREEIVYSVRGYDAVPRRFGIFLQDKYGNETDTLFTELTPIYERELDKT
kcat [3]: 0.046 s⁻¹
kcat/Km [3]: 657 M⁻¹ s⁻¹

B4: BT2857 (Bacteroides thetaiotaomicron VPI-5482) (protein)
chain: CAEDMVKPIENDKDAPGTVQDVKTESLPGAVKFTYTLPSDPDLLYVLAKYTNKTGKVMEFRSSFYTNSVTVEGFGDTDTYKVELYTVDRSENRSQPQIVEVVPLTPPILSCYESLSMVSDFGGMTFEMDNKFKSDLAIYVCTPDELGDMVLAETFYSAREEIVYSVRGYDAVPRRFGIFLQDKYGNETDTLFTELTPIYERELDKTKFREMYLQNDSRVDSYDGKMEYVWNGRISKDGDSGGVGLHTGTGTKDGPAVFTFDLGVLAKLSRFALWAIQDEKHFYNDMSPRRYEVWGCATEPNPDGSWDQWVKLLDMENVKPSGSPIGILTEDDIEAAKIGDQANVPLDMPRVRYIRIKCLKNWSNNYNICFTELTFWGNDNEE
kcat [4]: 0.046 s⁻¹
kcat/Km [4]: 354 M⁻¹ s⁻¹
